6 molecules from patent US20220372155A1 (LYVGEN BIOPHARMA, published 2022) can be followed below.

Assay [1] deals with T1, Human CD40 ECD protein (mouse IgG2a Fc tag) (human, UniProt P25942 21-193).
T1 construct: extracellular domain; also called Human CD40-msFc; human recombinant CD40; not shown: mouse IgG2a Fc tag
In words: bridging ELISA, coated B7H3-His, soluble CD40-msFc. The procedure:
Anti-B7H3/CD40 bi-specific antibodies were analyzed by ELISA for their simultaneous binding to recombinant human B7H3 and human CD40. Briefly, Human B7H3 CD protein (His-tag) was diluted and coated onto an ELISA plate with a volume of […] by incubation at 4° C. overnight. The next day, the plate was blocked with PBST-BSA buffer, then serially diluted samples of anti-B7H3/CD40 bi-specific antibodies were pipetted into appropriate wells at 50 μL/well, and the plate was incubated for 1 h followed by washing. Human CD40-msFc antibody was added into the plate at 50 μL/well. After 1-hour incubation at room temperature, […] anti-Mouse IgG (H+L) antibody was added into the plate at 100 μL/well. The plate was incubated for 1 hour at room temperature followed by washing. TMB substrate solution was added at 100 p L/well and the color development was stopped by adding 100 uUwell Stop Solution (2N H2SO4). Absorbance at 450 nm and 620 nm was read by Tecan F200 Pro plate reader. GraphPad 7.0, “[Agonist] vs. response—Variable slope (four parameters)” was used to plot the binding data and calculate binding EC50 values.

Assay [2] concerns the target T2, human CD40 expressed on CHO cells (human, UniProt P25942 21-277).
T2 construct: whole, on cells; also used for the reporter cells over-expressing human CD40; also called cellular CD40; CHO-CD40 cells
The assay can be described thus: FACS, CHO cells.

T1 sequence (P25942 21-193): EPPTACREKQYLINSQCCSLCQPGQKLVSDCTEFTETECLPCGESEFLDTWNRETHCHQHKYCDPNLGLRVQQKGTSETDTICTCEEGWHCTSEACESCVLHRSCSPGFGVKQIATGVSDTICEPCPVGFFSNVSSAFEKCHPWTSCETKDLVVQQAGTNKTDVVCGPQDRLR
T2 sequence (P25942 21-277): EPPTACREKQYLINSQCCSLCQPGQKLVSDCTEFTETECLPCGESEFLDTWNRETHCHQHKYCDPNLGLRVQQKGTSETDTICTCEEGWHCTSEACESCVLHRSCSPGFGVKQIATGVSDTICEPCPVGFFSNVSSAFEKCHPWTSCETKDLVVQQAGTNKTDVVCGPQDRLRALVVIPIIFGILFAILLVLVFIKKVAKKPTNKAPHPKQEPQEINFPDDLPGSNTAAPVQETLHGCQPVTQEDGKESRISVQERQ

B1: Ly612 (bispecific antibody, human IgG1, kappa)
heavy: EVQLQQSGPELVKPGASVKMSCKASGYTFTSYVMHWVKQKPGQGLEWIGYINPYNDGTECTDKFKGKATLTSDKSSSTAYMELSSLTSEDSAVYYCASIYYGYDGTYFGVWGAGTSVTVSSASTKGPSVFPLAPSSKSTSGGTAALGCLVKDYFPEPVTVSWNSGALTSGVHTFPAVLQSSGLYSLSSVVTVPSSSLGTQTYICNVNHKPSNTKVDKKVEPKSCDKTHTCPPCPAPELLGPSVFLFPPKPKDTLMISRTPEVTCVVVDVSHEDPEVKFNWYVDGVEVHNAKTKPREEQYNSTYRVVSVLTVLHQDWLNGKEYKCKVSNKALPAPIEKTISKAKGQPREPQVYTLPPSREEMTKNQVSLTCLVKGFYPSDIAVEWESNGQPENNYKTTPPVLDSDGSFFLYSKLTVDKSRWQQGNVFSCSVMHEALHNHYTQKSLSLSPGGGGGSGGGGSGGGGSGGGGSDIQMTQSPSSLSASVGDRVTITCLASEDISNDLAWYQQKPGKAPKLLIYFVDRLLDGVPSRFSGSGSGTDFTLTISSLQPEDFATYYCQQSYKYPPTFGQGTKLEIKGGGGSGGGGSGGGGSGGGGSEVQLVESGGGLVQPGGSLRLSCAASGFTFTNYGLHWVRQAPGKGLEWVSSISPSGGVTYYRDSVKGRFTISRDNSKNTLYLQMNSLRAEDTAVYYCAKPFLGWGGANWIAHWGQGTLVTVSS
light: QIVLSQSPAILSTSPGEKVTMTCRASSSVSYMHWYQQKPGSSPKPWIYATSNLASGVPARFSGSRSGTSYSLTISRVEAEDAATYYCQQWSSNTLTFGGGTKLELKRTVAAPSVFIFPPSDEQLKSGTASVVCLLNNFYPREAKVQWKVDNALQSGNSQESVTEQDSKDSTYSLSSTLTLSKADYEKHKVYACEVTHQGLSSPVTKSFNRGEC
notes: Ly383 HC (IgG1 mutated Fc)-TM559 scFv VL-VH + Ly383 LC
Regarding B1, the binding result in assay [1] and in assay [2] was “binds” in each case.

B2: Ly613 (bispecific antibody, human IgG1, kappa)
heavy: EVQLQQSGPELVKPGASVKMSCKASGYTFTSYVMHWVKQKPGQGLEWIGYINPYNDGTECTDKFKGKATLTSDKSSSTAYMELSSLTSEDSAVYYCASIYYGYDGTYFGVWGAGTSVTVSSASTKGPSVFPLAPSSKSTSGGTAALGCLVKDYFPEPVTVSWNSGALTSGVHTFPAVLQSSGLYSLSSVVTVPSSSLGTQTYICNVNHKPSNTKVDKKVEPKSCDKTHTCPPCPAPELLGPSVFLFPPKPKDTLMISRTPEVTCVVVDVSHEDPEVKFNWYVDGVEVHNAKTKPREEQYNSTYRVVSVLTVLHQDWLNGKEYKCKVSNKALPAPIEKTISKAKGQPREPQVYTLPPSREEMTKNQVSLTCLVKGFYPSDIAVEWESNGQPENNYKTTPPVLDSDGSFFLYSKLTVDKSRWQQGNVFSCSVMHEALHNHYTQKSLSLSPGGGGGSGGGGSGGGGSGGGGSEVQLVESGGGLVQPGGSLRLSCAASGFTFTNYGLHWVRQAPGKGLEWVSSISPSGGVTYYRDSVKGRFTISRDNSKNTLYLQMNSLRAEDTAVYYCAKPFLGWGGANWIAHWGQGTLVTVSSGGGGSGGGGSGGGGSGGGGSDIQMTQSPSSLSASVGDRVTITCLASEDISNDLAWYQQKPGKAPKLLIYFVDRLLDGVPSRFSGSGSGTDFTLTISSLQPEDFATYYCQQSYKYPPTFGQGTKLEIK
light: B1 light
notes: Ly383 HC (IgG1 mutated Fc)-TM559 scFv VH-VL + Ly383 LC
Consider B2, for which the binding result in assay [1] and in assay [2] was “binds” each time.

B3: Ly614 (bispecific antibody, human IgG1, kappa)
heavy: QVQLQQPGAELVKPGASVKLSCKASGYTFTSYWMHWVKQRPGQGLEWIGMIHPNSGGTNYNEKFKGKGTLTVDKSSSTAYMQLSSLTSDDSAVYYCVTSQATWFAYWGQGTLVTVSAASTKGPSVFPLAPSSKSTSGGTAALGCLVKDYFPEPVTVSWNSGALTSGVHTFPAVLQSSGLYSLSSVVTVPSSSLGTQTYICNVNHKPSNTKVDKKVEPKSCDKTHTCPPCPAPELLGPSVFLFPPKPKDTLMISRTPEVTCVVVDVSHEDPEVKFNWYVDGVEVHNAKTKPREEQYNSTYRVVSVLTVLHQDWLNGKEYKCKVSNKALPAPIEKTISKAKGQPREPQVYTLPPSREEMTKNQVSLTCLVKGFYPSDIAVEWESNGQPENNYKTTPPVLDSDGSFFLYSKLTVDKSRWQQGNVFSCSVMHEALHNHYTQKSLSLSPGGGGGSGGGGSGGGGSGGGGSDIQMTQSPSSLSASVGDRVTITCKASQNIYIYLNWYQQKPGKAPKLLIYNTNNLQTGVPSRFSGSGSGTDFTLTISSLQPEDFATYYCLQHSSRRTFGGGTKVEIKGGGGSGGGGSGGGGSGGGGSQVQLVESGGGLVQPGGSLKLSCATSGFNFNDYFMNWVRQASGKGLEWVGQIRNKNYNYATYYTESLEGRVTISRDDSKNTAYLQMNSLKTEDTAVYYCTSYYYDGFADYFDYWGQGTTVTVSS
light: ENVLTQSPAIMSVSPGEKVTMTCRASSSVSSSYLHWYQQKSGASPKFWIYSTSNLASGVPARFSGSGSGTSYSLTISSVEAEDAATYYCQHYSGYPLTFGAGTKLELRRTVAAPSVFIFPPSDEQLKSGTASVVCLLNNFYPREAKVQWKVDNALQSGNSQESVTEQDSKDSTYSLSSTLTLSKADYEKHKVYACEVTHQGLSSPVTKSFNRGEC
notes: Ly387 HC (IgG1 mutated Fc)-TM740 scFv VL-VH + Ly387 LC
Take B3: the binding result in assay [1] and in assay [2] was “binds” each time.

B4: Ly615 (bispecific antibody, human IgG1, kappa)
heavy: QVQLQQPGAELVKPGASVKLSCKASGYTFTSYWMHWVKQRPGQGLEWIGMIHPNSGGTNYNEKFKGKGTLTVDKSSSTAYMQLSSLTSDDSAVYYCVTSQATWFAYWGQGTLVTVSAASTKGPSVFPLAPSSKSTSGGTAALGCLVKDYFPEPVTVSWNSGALTSGVHTFPAVLQSSGLYSLSSVVTVPSSSLGTQTYICNVNHKPSNTKVDKKVEPKSCDKTHTCPPCPAPELLGPSVFLFPPKPKDTLMISRTPEVTCVVVDVSHEDPEVKFNWYVDGVEVHNAKTKPREEQYNSTYRVVSVLTVLHQDWLNGKEYKCKVSNKALPAPIEKTISKAKGQPREPQVYTLPPSREEMTKNQVSLTCLVKGFYPSDIAVEWESNGQPENNYKTTPPVLDSDGSFFLYSKLTVDKSRWQQGNVFSCSVMHEALHNHYTQKSLSLSPGGGGGSGGGGSGGGGSGGGGSQVQLVESGGGLVQPGGSLKLSCATSGFNFNDYFMNWVRQASGKGLEWVGQIRNKNYNYATYYTESLEGRVTISRDDSKNTAYLQMNSLKTEDTAVYYCTSYYYDGFADYFDYWGQGTTVTVSSGGGGSGGGGSGGGGSGGGGSDIQMTQSPSSLSASVGDRVTITCKASQNIYIYLNWYQQKPGKAPKLLIYNTNNLQTGVPSRFSGSGSGTDFTLTISSLQPEDFATYYCLQHSSRRTFGGGTKVEIK
light: B3 light
notes: Ly387 HC (IgG1 mutated Fc)-TM740 scFv VH-VL + Ly387 LC
B4: the binding result in assay [1] and in assay [2] was “binds” each time.

B5: Ly616 (bispecific antibody, human IgG1, kappa)
heavy: QVQLQQPGAELVKPGASVKLSCKASGYTFTSYWMHWVKQRPGQGLEWIGMIHPNSGGTNYNEKFKGKGTLTVDKSSSTAYMQLSSLTSDDSAVYYCVTSQATWFAYWGQGTLVTVSAASTKGPSVFPLAPSSKSTSGGTAALGCLVKDYFPEPVTVSWNSGALTSGVHTFPAVLQSSGLYSLSSVVTVPSSSLGTQTYICNVNHKPSNTKVDKKVEPKSCDKTHTCPPCPAPELLGPSVFLFPPKPKDTLMISRTPEVTCVVVDVSHEDPEVKFNWYVDGVEVHNAKTKPREEQYNSTYRVVSVLTVLHQDWLNGKEYKCKVSNKALPAPIEKTISKAKGQPREPQVYTLPPSREEMTKNQVSLTCLVKGFYPSDIAVEWESNGQPENNYKTTPPVLDSDGSFFLYSKLTVDKSRWQQGNVFSCSVMHEALHNHYTQKSLSLSPGGGGGSGGGGSGGGGSGGGGSDIQMTQSPSSLSASVGDRVTITCLASEDISNDLAWYQQKPGKAPKLLIYFVDRLLDGVPSRFSGSGSGTDFTLTISSLQPEDFATYYCQQSYKYPPTFGQGTKLEIKGGGGSGGGGSGGGGSGGGGSEVQLVESGGGLVQPGGSLRLSCAASGFTFTNYGLHWVRQAPGKGLEWVSSISPSGGVTYYRDSVKGRFTISRDNSKNTLYLQMNSLRAEDTAVYYCAKPFLGWGGANWIAHWGQGTLVTVSS
light: B3 light
notes: Ly387 HC (IgG1 mutated Fc)-TM559 scFv VL-VH + Ly387 LC
For B5, the binding result in assay [1] and in assay [2] was “binds” each time.

B6: Ly617 (bispecific antibody, human IgG1, kappa)
heavy: QVQLQQPGAELVKPGASVKLSCKASGYTFTSYWMHWVKQRPGQGLEWIGMIHPNSGGTNYNEKFKGKGTLTVDKSSSTAYMQLSSLTSDDSAVYYCVTSQATWFAYWGQGTLVTVSAASTKGPSVFPLAPSSKSTSGGTAALGCLVKDYFPEPVTVSWNSGALTSGVHTFPAVLQSSGLYSLSSVVTVPSSSLGTQTYICNVNHKPSNTKVDKKVEPKSCDKTHTCPPCPAPELLGPSVFLFPPKPKDTLMISRTPEVTCVVVDVSHEDPEVKFNWYVDGVEVHNAKTKPREEQYNSTYRVVSVLTVLHQDWLNGKEYKCKVSNKALPAPIEKTISKAKGQPREPQVYTLPPSREEMTKNQVSLTCLVKGFYPSDIAVEWESNGQPENNYKTTPPVLDSDGSFFLYSKLTVDKSRWQQGNVFSCSVMHEALHNHYTQKSLSLSPGGGGGSGGGGSGGGGSGGGGSEVQLVESGGGLVQPGGSLRLSCAASGFTFTNYGLHWVRQAPGKGLEWVSSISPSGGVTYYRDSVKGRFTISRDNSKNTLYLQMNSLRAEDTAVYYCAKPFLGWGGANWIAHWGQGTLVTVSSGGGGSGGGGSGGGGSGGGGSDIQMTQSPSSLSASVGDRVTITCLASEDISNDLAWYQQKPGKAPKLLIYFVDRLLDGVPSRFSGSGSGTDFTLTISSLQPEDFATYYCQQSYKYPPTFGQGTKLEIK
light: B3 light
notes: Ly387 HC (IgG1 mutated Fc)-TM559 scFv VH-VL + Ly387 LC
Take B6: the binding result in assay [1] and in assay [2] was “binds” throughout.
